Experiment [1] concerns the target T1, human CD8A on primary human CD8+ T cells (human, UniProt P01732 22-235).
T1 construct: whole, on cells; also called Human T-cells; CD8 alpha
Description: flow cytometry on human CD8+ T cells. On the procedure:
(§1) A full dose response binding curve was generated for the nineteen selected anti-CD8A FN3 domains. Each candidate was diluted to 20 μM in PBS followed by a 1:3 dilution series to generate either an 11-point or an 18-point dose response curve. Human or cyno CD8+ T cells were incubated with the diluted FN3 domain for 1 hour at 4° C. Cells were washed once with PBS and incubated with an anti-centyrin antibody (PAB25) for 1 hour at 4° C. The cells were washed twice with PBS, followed by incubation with a PE-secondary, anti-CD3-PacB, anti-CD4-APC, and a viability dye. Finally, cells were washed and resuspended in PBS for flow cytometric analysis using a BD Canto Instrument. CD8 T cells were defined as live CD3+CD4− cells. Median fluorescence intensity of the bound Centyrins (PE channel) and % of cells showing positive staining calculated using Cytobank software. Results were graphed using Prism and EC₅₀ values were calculated using the 4 parameter dose response variable slope equation.
(In general: Flow cytometry measures light scatter and fluorescence of single cells or particles in a stream.)

For experiment [2], the target named is T1, human CD8A on primary human CD8+ T cells. The experiment in a line: MSD-CAT equilibrium cell binding, primary human CD8 T cells. On the procedure: A MesoScale Discovery-Cell Affinity Technology (MSD-CAT) based equilibrium cell-binding assay was performed to determine the affinity of the top six anti-CD8A candidates binding to primary human cytotoxic T cell surface CD8A receptors. Each anti-CD8A FN3 domain at a constant concentration of […] was pre-incubated with 10 different concentrations of primary cytotoxic CD8 T cells (columns 2-11 in a row). Cell viability was checked prior to the binding measurements and a >85% viability was desired for valid analysis. Since these cells were from different donors, in case of donor-to-donor variations, only cells of the same donors were combined together. Each individual anti-CD8A FN3 domain binding was measured in replicates using cells from the same donors. Cells and FN3 domains were incubated overnight at 4° C. on a rotator to reach equilibrium. Following the incubation the cells were spun down along with cell bound anti-CD8A FN3 domains and the unbound (free) anti-CD8A FN3 domains in the supernatants is quantified using MSD assays where biotinylated recombinant hCD8A-Fc protein was captured at 0.6 ug/mL in assay buffer to streptavidin MSD plates overnight ˜16 hours at 4° C. After blocking the plate, supernatant with free anti-CD8A FN3 domains was added to the plate and incubated for 1 hr, then followed by SulfoTag pAb139 (In-house) detection at 1.6 ug/ml. A buffer control without any FN3 domain and hCD8A (plate background binding control) in column 1 and FN3 domain alone control without hCD8A (100% free/unbound) in column 12 were included. Mouse Anti-hCD8A mAb (mIgG1k, BD Biosciences, cat #555364, clone RPA-T8) was included as a positive control. Tencon27 was included in the initial assay validation as a negative control and no significant binding was observed, and therefore, was not included in the later cell binding due to the cell availability. Plates were read immediately on the MSD Sector Imager 6000™ Reader for luminescence levels after adding MSD Read Buffer by diluting 1:4 of stock into H2O.
Raw MSD data were exported and analysed in Prism using a non-linear fit with variable slope function to derive the Bmax and Hillslope values. Only those with converged Bmax values and hillslope within the range of −1.5˜−0.5 (ideal −1.0) will be considered for further analysis.

In experiment [3] the target is T2, cynomolgus monkey CD8A on cyno CD8+ T cells (cynomolgus monkey, UniProt P01732 23-235 (human entry)).
T2 construct: also called cyno T-cells; Cyno CD8alpha
T2 sequence (P01732 other isoform, or with tags, fused parts or gaps limits assumed): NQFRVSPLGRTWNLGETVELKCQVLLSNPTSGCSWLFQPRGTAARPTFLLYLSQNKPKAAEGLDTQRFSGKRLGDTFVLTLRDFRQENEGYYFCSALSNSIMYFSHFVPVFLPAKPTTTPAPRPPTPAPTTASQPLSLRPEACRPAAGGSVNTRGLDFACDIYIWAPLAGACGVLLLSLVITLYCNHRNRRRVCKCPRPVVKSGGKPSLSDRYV
The experiment in a line: flow cytometry on cyno CD8+ T cells. On the procedure: as §1

Experiment [4] deals with T3, human CD8A-Fc (recombinant human CD8 alpha fused to Fc fragment of human IgG1) (human, UniProt P01732 22-182, limits assumed).
T3 construct: SPR ligand, captured by goat anti-human Fc; also called hCD8A-Fc; recombinant CD8 alpha; not shown: linker with flag (and polyhistidine) tag and Fc fragment of human IgG1; depends on which of the two constructs was used
T3 sequence (P01732 22-182 limits assumed): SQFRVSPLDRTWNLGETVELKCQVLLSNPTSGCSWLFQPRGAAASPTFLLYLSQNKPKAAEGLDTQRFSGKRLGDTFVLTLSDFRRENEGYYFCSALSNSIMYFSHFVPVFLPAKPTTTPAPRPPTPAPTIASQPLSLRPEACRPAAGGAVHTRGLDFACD
The experiment in a line: SPR (ProteOn), captured hCD8A-Fc, heterogeneous ligand fit, lower affinity population; lower affinity population, heterogeneous ligand fit. As to the method: Human CD8A-Fc was then captured at five surface densities ranging from 200 to 1200 response units, leaving the 6th channel as empty channel control for GAH-Fc IgG surface. Binding was measured by flowing five different concentrations of anti-CD8A FN3 domains (1 μM diluted in a 3-fold dilution series) as analytes simultaneously in the horizontal orientation over the captured hCD8A-Fc surfaces, with a sixth analyte channel containing only running buffer PBST. All interactions were measured at 100 uL/min flow rate with association and dissociation times being 4, 30 minutes respectively. […] Data analyses were performed using Bio-Rad ProteOn Manager software (version 3.1.0.6). Raw data were double referenced by subtraction of the interspot (empty chip surface, no protein immobilized or captured) signals to correct the non-specific binding of the FN3 domain to the pre-coated GAH-Fc IgG surface, followed by a double referencing using the buffer blank response (to correct for any baseline drift resulting from ligand dissociation over time). […]

The target of experiment [5] is T3, human CD8A-Fc (recombinant human CD8 …). The experiment in a line: SPR (ProteOn), captured hCD8A-Fc, heterogeneous ligand fit, higher affinity population. On the procedure: (§2) Human CD8A-Fc was then captured at five surface densities ranging from 200 to 1200 response units, leaving the 6th channel as empty channel control for GAH-Fc IgG surface. Binding was measured by flowing five different concentrations of anti-CD8A FN3 domains (1 μM diluted in a 3-fold dilution series) as analytes simultaneously in the horizontal orientation over the captured hCD8A-Fc surfaces, with a sixth analyte channel containing only running buffer PBST. All interactions were measured at 100 uL/min flow rate with association and dissociation times being 4, 30 minutes respectively. […] Data analyses were performed using Bio-Rad ProteOn Manager software (version 3.1.0.6). Raw data were double referenced by subtraction of the interspot (empty chip surface, no protein immobilized or captured) signals to correct the non-specific binding of the FN3 domain to the pre-coated GAH-Fc IgG surface, followed by a double referencing using the buffer blank response (to correct for any baseline drift resulting from ligand dissociation over time). […] Given that the GAH-Fc capture of hCD8A-Fc format is the least disruptive relative to other formats in introducing potential experimental artifacts (such as ligand activity loss and/or artificial eptiopes/heterogeneous ligand population due to amine coupling), it is considered that the results from the GAH-Fc capture experiments reported here represent the most reliable ProteOn SPR data, despite the non-conforming 1:1 Langmuir fits observed in many instances. A heterogeneous ligand model was chosen to fit the data assuming two different ligand species, either due to the heterogeneity in the ligand protein population or due to potential different mechanisms for each FN3 domain binding to the 2 hCD8A monomers in the Fc fusion protein.

Experiment [6] has the same target. The experiment in a line: SPR, dissociation rate on recombinant CD8 alpha. For orientation: Surface plasmon resonance follows binding to a sensor surface in real time, without labels.
Experiment [7] shares this target. The experiment in a line: SPR (ProteOn), captured hCD8A-Fc, heterogeneous ligand fit, lower affinity population. As to the method: as §2
The target in experiment [8] is T4, human CD8A on cells (human, UniProt P01732 22-235).
T4 construct: whole, on cells; also called CD8A receptors on primary human cytotoxic T cells
T4 sequence (P01732 22-235): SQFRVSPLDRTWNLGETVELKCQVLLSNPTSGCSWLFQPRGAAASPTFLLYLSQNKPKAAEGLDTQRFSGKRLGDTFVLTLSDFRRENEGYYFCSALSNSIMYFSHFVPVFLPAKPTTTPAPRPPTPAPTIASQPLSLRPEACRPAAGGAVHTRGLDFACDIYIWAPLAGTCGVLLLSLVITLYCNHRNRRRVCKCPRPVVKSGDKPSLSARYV
The experiment in a line: MSD-CAT equilibrium cell-binding assay on primary human cytotoxic CD8 T cells. As to the method: A MesoScale Discovery-Cell Affinity Technology (MSD-CAT) based equilibrium cell-binding assay was performed to determine the affinity of the top six anti-CD8A candidates binding to primary human cytotoxic T cell surface CD8A receptors. Each anti-CD8A FN3 domain at a constant concentration of […] was pre-incubated with 10 different concentrations of primary cytotoxic CD8 T cells (columns 2-11 in a row). Cell viability was checked prior to the binding measurements and a >85% viability was desired for valid analysis. Since these cells were from different donors, in case of donor-to-donor variations, only cells of the same donors were combined together. Each individual anti-CD8A FN3 domain binding was measured in replicates using cells from the same donors. […] Following the incubation the cells were spun down along with cell bound anti-CD8A FN3 domains and the unbound (free) anti-CD8A FN3 domains in the supernatants is quantified using MSD assays where biotinylated recombinant hCD8A-Fc protein was captured at 0.6 ug/mL in assay buffer to streptavidin MSD plates overnight ˜16 hours at 4° C. […] Plates were read immediately on the MSD Sector Imager 6000™ Reader for luminescence levels after adding MSD Read Buffer by diluting 1:4 of stock into H2O.
Raw MSD data were exported and analysed in Prism using a non-linear fit with variable slope function to derive the Bmax and Hillslope values. […]

We go through eight molecules from patent US20210032312A1 (Janssen / Centocor, published 2021).

Where a chain is given by its changes, count along the chain named. Names may count otherwise.

T1 sequence (P01732 22-235): as above

B1: CD8S369 (designed binder)
chain: LPAPKNLVVSRVTEDSARLSWAKRPGAFDSFLIQYQESEKVGEAIVLTVPGSCRSYDLTGLKPGTEYTVSIYGVDVKYDIDSRPISSNPLSAIFTT
notes: P283AR9P1362_D6 with E54C; the entry holds the mutation
With B1, the EC50 (commonly the concentration needed to bring the measured effect to its halfway point) in experiment [1] came to 124 nM; in experiment [3], 72.3 nM. The Kd (in general, the free concentration of one partner at which half of the binding sites on the other are occupied at equilibrium, for simple one-to-one binding) in experiment [2] is 2.81 nM.

B2: P282DR9P1359_F5 (designed binder)
chain: LPAPKNLVVSRVTEDSARLSWTAPDAAFDSFQIAYPEWPPPGEAIVLTVPGSERSYDLTGLKPGTEYFVIIQGVKGGVESWPLSAIFTT
notes: FN3 domain (Centyrin); purified as His-tagged protein, tag not in the entry
For the molecule B2, the values for the equilibrium dissociation constant (Kd) in experiment [4] and in experiment [5] were 6.6 nM and 0.04 nM, respectively. Moreover, the off-rate (koff) (as a rule, the first-order rate constant of dissociation) in experiment [5] came out at 1.42e-05 s⁻¹; in experiment [6] it was 5.78e-05 s⁻¹; in experiment [7], 6.6e-05 s⁻¹. For the same molecule, the kon – broadly, a measure of how fast the partners come together – is 380000 M⁻¹ s⁻¹ in experiment [5] and 34800 M⁻¹ s⁻¹ in experiment [7].

B3: CD8S367 (designed binder)
chain: B2 chain with Q32A, P41Q, E53C, I70V, Q72Y, V78S, E79Y, W81A
notes: P282DR9P1359_F7 with E54C; the entry holds the mutation
For the molecule B3, the figures for the 50% effective concentration (EC50) in experiment [1] and in experiment [3] were 194 nM and 50.8 nM, respectively. Moreover, the Kd in experiment [2] is 0.225 nM.

B4: CD8S368 (designed binder)
chain: B2 chain with E53C
notes: P282DR9P1359_F5 with E54C; the entry holds the mutation
For B4, the EC50 in experiment [1] is 155 nM; in experiment [3], 70 nM. Also, binding in experiment [2] was characterised by a dissociation constant (Kd) of 0.459 nM.

B5: Tencon27 (designed binder)
chain: LPAPKNLVVSRVTEDSARLSWTAPDAAFDSFLIQYQESEKVGEAIVLTVPGSERSYDLTGLKPGTEYTVSIYGVKGGHRSNPLSAIFTT
notes: negative control scaffold; also called Stabilized Tencon
Turning to B5, in experiment [8], the binding result is on record as “no binding”.

B6: CD8S366 (designed binder)
chain: LPAPKNLVVSRVTEDSARLSWTAPDAAFDSFWITYPEWPDPGGEAIVLTVPGSCRSYDLTGLKPGTEYFVVIYGVKGGEIYSPLSAIFTT
notes: P282DR9P1359_C5 with E54C; the entry holds the mutation
B6: the EC50 came out at 163 nM in experiment [1] and 69.5 nM in experiment [3]. Moreover, in experiment [2], the Kd came out at 0.123 nM.

B7: CD8S370 (designed binder)
chain: LPAPKNLVVSRVTEDSARLSWTAPDAAFDSFAITYIEKEHIEDGEAIVLTVPGSCRSYDLTGLKPGTEYWVPIWGVKGGANSWPLSAIFTT
notes: P282DR9P1359_G7 with E54C; the entry holds the mutation
For B7, the EC50 in experiment [1] came to 209 nM; in experiment [3], 67.6 nM. The Kd in experiment [2] amounted to 0.869 nM.

B8: CD8S365 (designed binder)
chain: LPAPKNLVVSRVTEDSARLSWTAPDAAFDSFGILYYEPVDSGEAITLPVPGSCRSYDLTGLKPGTEYWVVITGVKGGAPSTPLGTIFTT
notes: P282ER9P1360_C8 with E54C; the entry holds the mutation
Turning to B8, the EC50 in experiment [1] was 556 nM; in experiment [3] it was 124 nM. Further, the Kd in experiment [2] was found to be 0.167 nM.
